Measured values: CN101123983A (MEDIMMUNE INC, dated 2008)

Target: T1, 人EphA4-His融合蛋白 (human EphA4 extracellular domain fused to a histidine tag) (human, UniProt P54764 20-547)
T1 construct: also called rhuEphA4-His; not shown: histidine tag
Assay: secondary screen: activity ELISA on coated human EphA4-His, normalised by Fab quantitation ELISA, against parent Fab20

T1 sequence (P54764 20-547): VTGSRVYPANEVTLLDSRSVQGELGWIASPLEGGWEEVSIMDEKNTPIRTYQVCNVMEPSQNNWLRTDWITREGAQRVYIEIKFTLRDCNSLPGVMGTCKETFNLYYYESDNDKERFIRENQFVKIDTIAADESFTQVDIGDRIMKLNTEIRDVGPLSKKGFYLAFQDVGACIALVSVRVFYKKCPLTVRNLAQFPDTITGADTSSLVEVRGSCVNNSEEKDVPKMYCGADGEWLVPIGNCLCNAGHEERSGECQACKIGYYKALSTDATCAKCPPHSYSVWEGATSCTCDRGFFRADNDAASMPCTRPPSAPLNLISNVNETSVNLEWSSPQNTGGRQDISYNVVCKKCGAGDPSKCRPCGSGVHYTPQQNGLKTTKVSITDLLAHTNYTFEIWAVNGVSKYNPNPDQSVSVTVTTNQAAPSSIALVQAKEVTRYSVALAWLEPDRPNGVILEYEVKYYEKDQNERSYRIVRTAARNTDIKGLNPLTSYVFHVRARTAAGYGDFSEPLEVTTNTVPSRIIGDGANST

binding result	Binder
binds	11H1 (Fab, V domains shown, Fab with human gamma1 CH1 and human kappa constant domain; also called GEA44衍生物11H1) VH: QVQLLQSGAEVKKPGASVKVPCKASGYTFTSYAMSWVRQAPGQGLEWMGWINTNTGNPTYAQGFTGRFVFSLDTSVSTAYLQISSLKAEDTAVYYCARVRLTVYGDGMDVWGQGTLVTVSS VL: EIVLTQSPATLSVSPGERATLSCRASQSVSSNLAWYQQKPGQAPRLLIYGASTRATGIPDRFSASGSGTDFTLTISRVEPEDFAVYYCQQYGSSWTFGQGTKVEIK

Target: T1, 人EphA4-His融合蛋白 (human EphA4 …)
Assay: secondary screen of combination variant Fabs: activity ELISA on coated human EphA4-His, normalised by Fab quantitation ELISA

Binder	binding result
6B7 (Fab, V domains shown) VH: QVQLLQSGAEVKKPGASVKVPCKASGYTFTSRAMSWVRQAPGQGLEWMGWINTNTGNPTYAQGFTGRFVFSLDTSVSTAYLQISSLKAEDTAVYYCARVRFTVYGDGMDVWGQGTLVTVSS VL: EIVLTQSPATLSVSPGERATLSCRASQSVSSNPAWYQQKPGQAPRLLIYGASTRATGIPDRFSASGSGTDFTLTISRVEPEDFAVYYCQQYGPSWTFGQGTKVEIK	binds
1D11 (Fab, V domains shown) VH: QVQLLQSGAEVKKPGASVKVPCKASGYTFTSRAMSWVRQAPGQGLEWMGWINTNTGNPTYAQGFTGRFVFSLDTSVSTAYLQISSLKAEDTAVYYCARVRTTVYGDNMDVWGQGTLVTVSS VL: EIVLTQSPATLSVSPGERATLSCRASQSVSSNLPWYQQKPGQAPRLLIYGASTRATGIPDRFSASGSGTDFTLTISRVEPEDFAVYYCQQYGPSWTFGQGTKVEIK	binds
3A12 (Fab, V domains shown) VH: QVQLLQSGAEVKKPGASVKVPCKASGYTFTSRAMSWVRQAPGQGLEWMGWINTNTGNPTYAQGFTGRFVFSLDTSVSTAYLQISSLKAEDTAVYYCARVRFTVYGDGMDVWGQGTLVTVSS VL: EIVLTQSPATLSVSPGERATLSCRASQSVSSNLAWYQQKPGQAPRLLIYGASTWATGIPDRFSASGSGTDFTLTISRVEPEDFAVYYCQQYGPSWTFGQGTKVEIK	binds

The remaining lines, values ahead:

binding result	Binder
binds	1A4 (Fab, V domains shown) VH: QVQLLQSGAEVKKPGASVKVPCKASGYTFTSRAMSWVRQAPGQGLEWMGWINTNTGNPTYAQGSTGRFVFSLDTSVSTAYLQISSLKAEDTAVYYCARVRFTVYGDGMDVWGQGTLVTVSS VL: EIVLTQSPATLSVSPGERATLSCRASQSVSSNPAWYQQKPGQAPRLLIYGASTRATGIPDRFSASGSGTDFTLTISRVEPEDFAVYYCQQYGPSWTFGQGTKVEIK
binds	3C6 (Fab, V domains shown) VH: QVQLLQSGAEVKKPGASVKVPCKASGYTFTSRAMSWVRQAPGQGLEWMGWINTNTGNPTYAQGFTGRFVFSLDTSVSTAYLQISSLKAEDTAVYYCARVRLTVYGDGMDVWGQGTLVTVSS VL: EIVLTQSPATLSVSPGERATLSCRASQSVSSNPPWYQQKPGQAPRLLIYGASTRATGIPDRFSASGSGTDFTLTISRVEPEDFAVYYCQQYGSSWTFGQGTKVEIK
binds	1B10 (Fab, V domains shown) VH: QVQLLQSGAEVKKPGASVKVPCKASGYTFTSRAMSWVRQAPGQGLEWMGWINTNTGNPTYAQGFTGRFVFSLDTSVSTAYLQISSLKAEDTAVYYCARVRFTVYGDGMDVWGQGTLVTVSS VL: EIVLTQSPATLSVSPGERATLSCRASQSVSSNPAWYQQKPGQAPRLLIYGASTWATGIPDRFSASGSGTDFTLTISRVEPEDFAVYYCQQYGPSWTFGQGTKVEIK
binds	1G11 (Fab, V domains shown) VH: QVQLLQSGAEVKKPGASVKVPCKASGYTFTSRAMSWVRQAPGQGLEWMGWINTNTGNPTYAQGFTGRFVFSLDTSVSTAYLQISSLKAEDTAVYYCARVRFTVYGDGMDVWGQGTLVTVSS VL: EIVLTQSPATLSVSPGERATLSCRASQSVSSNLPWYQQKPGQAPRLLIYGASTRPTGIPDRFSASGSGTDFTLTISRVEPEDFAVYYCQQYGPSWTFGQGTKVEIK
